Laboratory results published in patent US20240390512A1 (Daiichi Sankyo, published 2024).

T1: human CDH6 (cadherin-6), full-length, on cells (human, UniProt P55285 54-790)
T1 construct: also called hCDH6; full-length hCDH6
T1 sequence: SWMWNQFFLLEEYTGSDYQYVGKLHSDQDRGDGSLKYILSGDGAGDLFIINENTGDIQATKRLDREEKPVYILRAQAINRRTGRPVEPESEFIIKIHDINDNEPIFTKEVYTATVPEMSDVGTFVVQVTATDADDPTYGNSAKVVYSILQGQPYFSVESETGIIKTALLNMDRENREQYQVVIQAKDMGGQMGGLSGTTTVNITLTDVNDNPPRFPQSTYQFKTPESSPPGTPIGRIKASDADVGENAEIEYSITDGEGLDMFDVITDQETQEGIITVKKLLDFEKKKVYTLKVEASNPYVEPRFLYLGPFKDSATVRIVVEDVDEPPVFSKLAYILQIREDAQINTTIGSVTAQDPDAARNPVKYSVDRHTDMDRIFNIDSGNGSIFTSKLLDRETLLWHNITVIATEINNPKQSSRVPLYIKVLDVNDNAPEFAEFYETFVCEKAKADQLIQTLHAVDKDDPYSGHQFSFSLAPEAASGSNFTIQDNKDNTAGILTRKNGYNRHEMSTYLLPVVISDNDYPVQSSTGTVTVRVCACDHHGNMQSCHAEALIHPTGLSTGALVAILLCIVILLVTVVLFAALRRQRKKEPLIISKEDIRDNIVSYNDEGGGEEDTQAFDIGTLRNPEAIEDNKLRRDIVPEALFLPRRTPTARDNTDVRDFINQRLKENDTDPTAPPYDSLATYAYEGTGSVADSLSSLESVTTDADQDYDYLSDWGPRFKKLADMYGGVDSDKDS

T2: cynomolgus monkey CDH6, on cells (cynomolgus monkey, UniProt P55285 54-790 (human entry))
T2 construct: Expressed from pcDNA3.1-cynoCDH6; also called cynoCDH6
T2 sequence: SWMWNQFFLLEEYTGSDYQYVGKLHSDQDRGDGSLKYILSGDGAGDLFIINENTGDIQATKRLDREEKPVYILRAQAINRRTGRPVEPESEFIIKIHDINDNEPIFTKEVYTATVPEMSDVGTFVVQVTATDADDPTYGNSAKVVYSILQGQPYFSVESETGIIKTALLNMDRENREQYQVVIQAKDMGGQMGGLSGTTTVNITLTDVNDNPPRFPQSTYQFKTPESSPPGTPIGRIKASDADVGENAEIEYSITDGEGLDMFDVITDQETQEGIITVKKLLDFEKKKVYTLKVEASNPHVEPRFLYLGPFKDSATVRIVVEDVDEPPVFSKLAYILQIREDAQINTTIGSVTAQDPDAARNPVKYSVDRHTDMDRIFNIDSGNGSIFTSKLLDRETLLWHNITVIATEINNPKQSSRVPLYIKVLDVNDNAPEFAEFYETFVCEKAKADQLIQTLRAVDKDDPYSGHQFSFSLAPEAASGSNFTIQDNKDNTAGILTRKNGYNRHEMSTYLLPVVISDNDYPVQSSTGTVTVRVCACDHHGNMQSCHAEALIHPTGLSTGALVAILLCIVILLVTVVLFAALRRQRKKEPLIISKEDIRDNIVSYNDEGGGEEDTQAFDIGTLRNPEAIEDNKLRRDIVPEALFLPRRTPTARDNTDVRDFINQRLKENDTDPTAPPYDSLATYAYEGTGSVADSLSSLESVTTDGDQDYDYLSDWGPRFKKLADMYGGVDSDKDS

T3: Recombinant Human CDH6 Fc His chimera (R&D Systems, Inc.) (human, UniProt P55285 54-615)
T3 construct: Bought reagent; also called the antigen; human CDH6 antigen; Fc part of the bought chimera not given; His tag of the bought chimera
T3 sequence: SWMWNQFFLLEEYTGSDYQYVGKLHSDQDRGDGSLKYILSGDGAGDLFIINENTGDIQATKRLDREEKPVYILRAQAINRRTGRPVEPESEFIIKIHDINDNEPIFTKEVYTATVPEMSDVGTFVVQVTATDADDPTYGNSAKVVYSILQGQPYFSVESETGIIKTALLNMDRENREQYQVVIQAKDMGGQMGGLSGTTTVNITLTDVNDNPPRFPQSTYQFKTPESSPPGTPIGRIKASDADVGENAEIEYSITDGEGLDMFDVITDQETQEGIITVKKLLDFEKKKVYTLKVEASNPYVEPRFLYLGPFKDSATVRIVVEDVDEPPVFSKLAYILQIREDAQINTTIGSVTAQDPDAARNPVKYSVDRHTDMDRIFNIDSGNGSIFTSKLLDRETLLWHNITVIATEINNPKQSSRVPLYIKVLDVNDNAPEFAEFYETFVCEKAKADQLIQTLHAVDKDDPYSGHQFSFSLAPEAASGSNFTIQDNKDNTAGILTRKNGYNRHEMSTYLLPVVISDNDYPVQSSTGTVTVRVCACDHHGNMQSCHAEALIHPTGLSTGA

T4: mouse CDH6, on cells (mouse, UniProt P97326 54-790)
T4 construct: also called mCDH6; NP_031692
T4 sequence: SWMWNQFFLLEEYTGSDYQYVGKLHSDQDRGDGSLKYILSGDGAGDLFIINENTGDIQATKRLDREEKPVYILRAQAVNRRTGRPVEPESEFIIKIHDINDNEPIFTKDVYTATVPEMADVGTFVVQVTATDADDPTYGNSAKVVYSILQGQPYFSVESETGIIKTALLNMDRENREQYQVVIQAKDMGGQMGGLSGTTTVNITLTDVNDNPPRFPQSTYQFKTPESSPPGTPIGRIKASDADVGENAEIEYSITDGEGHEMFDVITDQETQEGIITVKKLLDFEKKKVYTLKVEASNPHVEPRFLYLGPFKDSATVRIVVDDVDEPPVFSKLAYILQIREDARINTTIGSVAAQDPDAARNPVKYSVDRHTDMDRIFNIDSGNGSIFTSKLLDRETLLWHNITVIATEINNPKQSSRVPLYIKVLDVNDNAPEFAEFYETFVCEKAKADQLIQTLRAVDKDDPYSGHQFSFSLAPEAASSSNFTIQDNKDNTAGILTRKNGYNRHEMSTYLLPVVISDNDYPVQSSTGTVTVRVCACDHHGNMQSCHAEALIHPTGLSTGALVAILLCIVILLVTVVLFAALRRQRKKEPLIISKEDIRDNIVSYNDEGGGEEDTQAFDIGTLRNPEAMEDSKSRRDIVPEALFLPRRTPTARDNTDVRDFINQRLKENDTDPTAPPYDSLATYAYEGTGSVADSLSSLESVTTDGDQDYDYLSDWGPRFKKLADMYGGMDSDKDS

T5: rat CDH6, on cells (rat, UniProt P55280 54-789)
T5 construct: also called rCDH6; NP_037059
T5 sequence: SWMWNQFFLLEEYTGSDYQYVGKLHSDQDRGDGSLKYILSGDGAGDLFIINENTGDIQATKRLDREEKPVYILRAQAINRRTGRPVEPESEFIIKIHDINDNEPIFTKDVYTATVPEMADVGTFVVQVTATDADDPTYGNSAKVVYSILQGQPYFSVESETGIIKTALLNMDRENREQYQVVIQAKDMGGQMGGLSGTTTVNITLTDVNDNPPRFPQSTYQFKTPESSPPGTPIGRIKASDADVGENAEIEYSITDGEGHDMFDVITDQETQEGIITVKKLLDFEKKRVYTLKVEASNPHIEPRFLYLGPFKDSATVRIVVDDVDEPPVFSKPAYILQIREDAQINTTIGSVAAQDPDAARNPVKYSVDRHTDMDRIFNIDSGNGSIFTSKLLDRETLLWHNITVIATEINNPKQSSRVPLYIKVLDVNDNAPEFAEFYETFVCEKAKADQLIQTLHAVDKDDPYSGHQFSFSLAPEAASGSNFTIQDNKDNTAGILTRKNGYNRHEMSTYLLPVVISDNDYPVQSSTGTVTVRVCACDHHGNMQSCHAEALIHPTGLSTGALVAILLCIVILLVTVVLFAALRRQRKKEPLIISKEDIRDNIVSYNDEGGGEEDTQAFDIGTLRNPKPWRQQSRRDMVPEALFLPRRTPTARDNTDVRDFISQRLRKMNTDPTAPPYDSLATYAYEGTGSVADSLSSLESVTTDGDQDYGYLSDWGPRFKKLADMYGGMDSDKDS

T6: EC3 deletion mutant of human CDH6, on cells (human, UniProt P55285 54-790)
T6 construct: in p3×FLAG-CMV-9; also called EC3-deleted hCDH6
T6 sequence: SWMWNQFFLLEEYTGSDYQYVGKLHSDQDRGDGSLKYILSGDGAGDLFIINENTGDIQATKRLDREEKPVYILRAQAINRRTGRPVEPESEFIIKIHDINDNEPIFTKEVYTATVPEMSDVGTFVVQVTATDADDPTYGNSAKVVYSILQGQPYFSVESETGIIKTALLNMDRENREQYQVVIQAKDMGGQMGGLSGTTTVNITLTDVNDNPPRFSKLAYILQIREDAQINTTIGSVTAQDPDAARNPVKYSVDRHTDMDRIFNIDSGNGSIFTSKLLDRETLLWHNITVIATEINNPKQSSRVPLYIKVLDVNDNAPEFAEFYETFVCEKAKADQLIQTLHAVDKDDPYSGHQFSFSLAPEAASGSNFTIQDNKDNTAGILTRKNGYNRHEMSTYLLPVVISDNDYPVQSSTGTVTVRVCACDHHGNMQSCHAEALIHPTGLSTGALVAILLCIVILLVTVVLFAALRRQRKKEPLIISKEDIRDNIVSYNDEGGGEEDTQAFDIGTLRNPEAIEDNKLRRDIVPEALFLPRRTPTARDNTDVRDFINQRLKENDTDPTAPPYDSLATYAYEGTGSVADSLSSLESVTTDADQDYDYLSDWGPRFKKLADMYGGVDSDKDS


Tests used:
[1] = target: T1, human CDH6 (cadherin-6), full-length, …; assay: flow cytometry; 293α cells transfected with pcDNA3.1-hCDH6; PE anti-human IgG Fcγ F(ab')2
[2] = target: T2, cynomolgus monkey CDH6, on cells; assay: flow cytometry; 293α cells transfected with pcDNA3.1-cynoCDH6; PE anti-human IgG Fcγ F(ab')2
[3] = target: T3, Recombinant Human CDH6 Fc His chimera …; assay: SPR (Biacore T200); antigen captured by immobilized anti-His antibody, antibody as analyte 0.391 to 100 nM; steady state affinity model
mouse CDH6, on cells = target: T4, mouse CDH6, on cells; assay: flow cytometry; 293α cells transfected with mCDH6; PE anti-human IgG Fc(gamma) goat F(ab')
rat CDH6, on cells = target: T5, rat CDH6, on cells; assay: flow cytometry; 293α cells transfected with rCDH6; PE anti-human IgG Fc(gamma) goat F(ab')
[4] = target: T6, EC3 deletion mutant of human CDH6, on …; assay: flow cytometry; 293α cells transfected with EC3-deleted hCDH6 (open line) against untransfected 293α cells (shaded); APC anti-human IgG goat F(ab')2; antibody concentration not given

Row | EC50 (read off the curve) [1] | EC50 (read off the curve) [2] | Kd [3] | binding result [4] | Binder | binding result (mouse CDH6, on cells) | binding result (rat CDH6, on cells)
1 | ~0.01 µg/mL | ~0.01 µg/mL | – | – | human chimeric anti-CDH6 antibody chG019 (antibody, human IgG1, human IgG1 / kappa constant regions; also called chimeric G019 antibody; chG019 antibody) heavy: not shown light: DIQMTQSPSLLSASVGDRVTLNCKASQNIYKNLAWYQQKLGEGPKLLIYDANTLQTGIPSRFSGSGSGSDFTLTISSLQPEDVATYFCQQYYSGWAFGGVTNLELKRAVAAPSVFIFPPSDEQLKSGTASVVCLLNNFYPREAKVQWKVDNALQSGNSQESVTEQDSKDSTYSLSSTLTLSKADYEKHKVYACEVTHQGLSSPVTKSFNRGEC | – | –
2 | – | – | 1.1 nM | no binding | humanized anti-CDH6 antibody H02L02 (antibody, human IgG1, kappa, V domains shown, hH02 heavy chain and hL02 light chain, human IgG1 / kappa; also called H02L02 antibody) VH: EVQLVQSGAEVKKPGASVKVSCKASGYTFTRNFMHWVRQAPGQGLEWMGWIYPGDGETEYNQKFQGRVTITADRSTSTAYMELSSLRSEDTAVYFCARGVYGGFAGGYFDFWGQGTLVTVSS VL: DIQMTQSPSSLSASVGDRVTITCKASQNIYKNLAWYQQKPGKAPKLLIYDANTLQTGVPSRFSGSGSGSDFTLTISSLQPEDFATYFCQQYYSGWAFGQGTKVEIKR | no binding (tested: about 4, unit not printed on the axis) | no binding (tested: about 4, unit not printed on the axis)
3 | – | – | 1.4 nM | no binding | humanized anti-CDH6 antibody H02L03 (antibody, human IgG1, kappa, V domains shown, hH02 heavy chain and hL03 light chain, human IgG1 / kappa; also called H02L03 antibody) VH: EVQLVQSGAEVKKPGASVKVSCKASGYTFTRNFMHWVRQAPGQGLEWMGWIYPGDGETEYNQKFQGRVTITADRSTSTAYMELSSLRSEDTAVYFCARGVYGGFAGGYFDFWGQGTLVTVSS VL: DIQMTQSPSSLSASVGDRVTITCKASQNIYKNLAWYQQKLGEGPKLLIYDANTLQTGVPSRFSGSGSGTDFTLTISSLQPEDFATYYCQQYYSGWAFGQGTKVEIKR | no binding (tested: about 4, unit not printed on the axis) | no binding (tested: about 4, unit not printed on the axis)
4 | – | – | 1.5 nM | no binding | humanized anti-CDH6 antibody H01L02 (antibody, human IgG1, kappa, V domains shown, hH01 heavy chain and hL02 light chain, human IgG1 / kappa; also called H01L02 antibody; humanized hG019 (H01L02)) VH: EVQLVQSGAEVKKPGASVKVSCKASGYTFTRNFMHWVRQAPGQGLEWMGWIYPGDGETEYAQKFQGRVTITADTSTSTAYMELSSLRSEDTAVYYCARGVYGGFAGGYFDFWGQGTLVTVSS VL: DIQMTQSPSSLSASVGDRVTITCKASQNIYKNLAWYQQKPGKAPKLLIYDANTLQTGVPSRFSGSGSGSDFTLTISSLQPEDFATYFCQQYYSGWAFGQGTKVEIKR | no binding (tested: about 4, unit not printed on the axis) | no binding (tested: about 4, unit not printed on the axis)
